In patent publication US5817785:

How the values were obtained:
[1] = target: HIV-1 reverse transcriptase (HIV-RT) (HIV-1) (UniProt P04585+P04585); assay: filter
[2] = target: T1, HIV-1 Rev protein (HIV-1) (UniProt P04618); assay: filter; details: background affinity of starting pool
T1 sequence: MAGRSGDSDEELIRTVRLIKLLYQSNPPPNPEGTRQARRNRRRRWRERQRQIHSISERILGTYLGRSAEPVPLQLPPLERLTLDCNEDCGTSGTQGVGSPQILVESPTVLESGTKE

Row | Sequence | binding signal (fold higher affinity than ligand B) [1] | Kd [2]
1 | GGUCCGAAGUGCAACGGGAAAAUGCACUNNNNNNAGNNNNNNUGNUGNNNNNNN [extended HIV-RT ligands, Extension Motif II consensus] | > 10 | –
2 | GGUCCGAAGUGCAACGGGAAAAUGCACUNNNNGUGARNNNNUGNUCCNNNN [extended HIV-RT ligands, Extension Motif I consensus] | > 10 | –
3 | CCCGGAUCCUCUUUACCUCUGUGUGAGAUACAGAGUCCACAAACGUGUUCUCAAUGCACCCGGUCGGAAGGCCAUCAAUAGUCCC | – | 100 nM
